Test results reported in paper PMC2148182 (The Journal of Cell Biology, 1998).
Like-named read-outs stand apart in the source and are kept apart here.

Legend:
[1] = biological target: T1, yeast actin monomers (yeast (S. cerevisiae), UniProt P60010 1-375); assay: co-sedimentation
[2] = biological target: T1, yeast actin monomers; assay: co-sedimentation; remark: listed apart in the source

B1: full-length twinfilin (yeast, recombinant) (natural protein)
chain: MATQSGIVAEQALLHSLNENLSADGIVIIIAKISPDSTSVHQTQVARSFEELVQLASQEREPLYIFYKPEGLDKYFFVSFIPDGSPVRSRMLYASTKNTLARQVGSNSLSTEQPLITDAQDLVDLKNFDSARPAGQNKPLTHDEEMQIEINKQQALLRKNTSVKLVSQDSASPLSLTFRVNSEKPINEILDSEGKNLIIFQIDPSNETIQIVQSDTCPSVDELYIDLPGPSYTIFRQGDSSFFIYSCPSGSKVKDRMIYASNKNGFINYLKNDQKIAFSKVVEIGDFVELDKSLLMATNKEDSLDHGSNPDLPNKSNLKFNKPKGPLRKRRT
With B1 the “stoichiometry N” value [1] was ~1 twinfilin:actin and the “stoichiometry N” value [2] was 1 twinfilin:actin.
